Assay results: paper PMC12038395, “Mechanistic insights into the activity of SARS-CoV-2 RNA polymerase inhibitors using single-molecule FRET”

Target: SARS-CoV-2 nsp12 (RdRp), wild type;SARS-CoV-2 nsp7;SARS-CoV-2 nsp8 (SARS-CoV-2;SARS-CoV-2;SARS-CoV-2, UniProt P0DTD1;P0DTD1;P0DTD1 4393-5324;3860-3942;3943-4140, ||)
Experiment: EMSA (native gel); no NTP
Settings: protein: recombinant;recombinant;recombinant; tags: C-terminal His10 (TEV-cleaved protein A);GST-3C construct (E. coli); 9.4 kDa on gel;GST-3C construct (E. coli); 22 kDa on gel; copies: 1;1;2; label: Cy3 at template 5' end; Cy5 internal at primer position 12

B1: Extension Template P1 / Extension Primer P12 short (overhang RNA) (structured_RNA)
RNA 1: AAAAAAAAUUUUUUUUUUUUUUUAAUUCUUAAUCUCACAUAGC
RNA 2: GCUAUGUGAGAUUAAGAAUU
B1: binds.
